Source: the supplement of paper PMC10724198
± gives the standard deviation of the averaged measurements.

What was measured:
[1] = system: Saccharomyces cerevisiae; assay: protein stability index of tFT-peptide fusion (C-terminal peptide) (PSI (0-1 scale)); higher = more stable (slower turnover); settings: genetic background: wild type; temperature: 30 C
[2] = system: Saccharomyces cerevisiae; assay: as above
Experimental: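 MPS profiling in S. cerevisiae of the tFT-X12 degron library: putative degron peptides plus stable controls, 12 aa, fused to the C-terminus of a sfGFP-mCherry timer. Cells are FACS-sorted into 8 mCherry/sfGFP bins and deep-sequenced. PSI runs from 0 (unstable) to 1 (stable). Backgrounds are wild type, das1Δ and doa10Δ at 30 °C, and wild type, das1Δ, cdc34-1 and cdc53-1 at 37 °C; 2-3 technical replicates each.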

[3] = genetic background: cdc34-1, temperature: 37 C
[4] = genetic background: cdc53-1, temperature: 37 C
[5] = genetic background: das1 deletion, temperature: 30 C
[6] = genetic background: das1 deletion, temperature: 37 C
[7] = genetic background: doa10 deletion, temperature: 30 C
[8] = genetic background: wild type, temperature: 30 C
[9] = genetic background: wild type, temperature: 37 C
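Also: PSI is a weighted mean of sequencing reads over stability bins, variants kept only with over 10 reads, mCherry proximal and sfGFP distal, peptide attached via GGGS linker.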

| Sequence | protein stability index [1] | protein stability index [2, 3] | protein stability index [2, 4] | protein stability index [2, 5] | protein stability index [2, 6] | protein stability index [2, 7] | protein stability index [2, 8] | protein stability index [2, 9] |
| --- | --- | --- | --- | --- | --- | --- | --- | --- |
| LTCTSTPMACRV | 0.452 ± 0.0075 | 0.562 ± 0.067 | 0.589 ± 0.021 | 0.443 ± 0.026 | 0.596 ± 0.011 | 0.429 ± 0.015 | 0.475 ± 0.013 | 0.5859 ± 0.0028 |
| LVCLPVGFFLMW | 0.4899 ± 0.0037 | 0.565 ± 0.084 | 0.638 ± 0.0074 | 0.47 ± 0.034 | 0.634 ± 0.0072 | 0.388 ± 0.0045 | 0.411 ± 0.013 | 0.576 ± 0.0068 |
| LVCLVFVRSSLV | 0.339 ± 0.022 | 0.268 ± 0.0043 | 0.571 ± 0.079 | 0.25 ± 0.024 | 0.529 ± 0.0096 | 0.205 ± 0.0029 | 0.232 ± 0.038 | 0.457 ± 0.017 |
| LVCSRFLFAFHC | 0.145 ± 0.011 | 0.45678 ± 0.00016 | 0.686 ± 0.022 | 0.604 ± 0.037 | 0.699 ± 0.014 | 0.076 ± 0.0097 | 0.0796 ± 0.0047 | 0.104 ± 0.012 |
| LVFFLFFFRCFS | 0.449 ± 0.035 | 0.506 ± 0.059 | 0.514 ± 0.016 | 0.37 ± 0.049 | 0.534 ± 0.014 | 0.3734 ± 0.0018 | 0.36 ± 0.033 | 0.488 ± 0.0042 |
| LVFGFSLILRVG | 0.2132 ± 0.00073 | 0.168 ± 0.025 | 0.203 ± 0.0096 | 0.272 ± 0.054 | 0.356 ± 0.016 | 0.139 ± 0.016 | 0.128 ± 0.0069 | 0.234 ± 0.018 |
| LVRDEVLKVKLV | 0.297 ± 0.014 | 0.6432 ± 0.004 | 0.718 ± 0.011 | 0.643 ± 0.018 | 0.722 ± 0.013 | 0.138 ± 0.0093 | 0.17 ± 0.021 | 0.244 ± 0.0095 |
| LVRGSRLIVIVG | 0.423 ± 0.026 | 0.444 ± 0.01 | 0.473 ± 0.028 | 0.333 ± 0.025 | 0.5181 ± 0.0045 | 0.289 ± 0.0053 | 0.328 ± 0.034 | 0.492 ± 0.019 |
| LYTFCSMDANPM | 0.4016 ± 0.0012 | 0.397 ± 0.019 | 0.439 ± 0.011 | 0.439 ± 0.019 | 0.383 ± 0.033 | 0.488 ± 0.028 | 0.468 ± 0.0092 | 0.407 ± 0.04 |
| MALAVRVVYCGA | 0.378 ± 0.0028 | 0.349 ± 0.015 | 0.391 ± 0.01 | 0.293 ± 0.023 | 0.4395 ± 0.0024 | 0.234 ± 0.011 | 0.283 ± 0.027 | 0.415 ± 0.021 |
| MFTIYISFVFAF | 0.269 ± 0.039 | 0.197 ± 0.0067 | 0.277 ± 0.0087 | 0.195 ± 0.029 | 0.3305 ± 0.00089 | 0.179 ± 0.017 | 0.214 ± 0.0098 | 0.2844 ± 0.0023 |
| MSQVRYQRATRA | 0.54 ± 0.067 | 0.657 ± 0.074 | 0.676 ± 0.044 | 0.608 ± 0.0071 | 0.692 ± 0.0087 | 0.526 ± 0.021 | 0.535 ± 0.023 | 0.648 ± 0.011 |
| NDKGKKTKIKIV | 0.254 ± 0.058 | 0.659 ± 0.025 | 0.72 ± 0.057 | 0.64 ± 0.067 | 0.7368 ± 0.0053 | 0.187 ± 0.011 | 0.185 ± 0.024 | 0.343 ± 0.029 |
| NENQIKVIMLLV | 0.266 ± 0.011 | 0.4964 ± 0.0021 | 0.572 ± 0.092 | 0.344 ± 0.052 | 0.555 ± 0.0077 | 0.153 ± 0.0095 | 0.196 ± 0.04 | 0.268 ± 0.011 |
| NRFRLFRLNFSV | 0.302 ± 0.015 | 0.68 ± 0.042 | 0.724 ± 0.052 | 0.606 ± 0.02 | 0.751 ± 0.014 | 0.161 ± 0.0037 | 0.168 ± 0.024 | 0.36 ± 0.049 |
| PATPPLRFPPSA | 0.409 ± 0.0081 | 0.702 ± 0.032 | 0.7349 ± 0.0039 | 0.648 ± 0.01 | 0.7356 ± 0.0028 | 0.67 ± 0.033 | 0.668 ± 0.012 | 0.7075 ± 0.0036 |
| PCTFYLFWMFFV | 0.3041 ± 0.002 | 0.4168 ± 0.0038 | 0.565 ± 0.042 | 0.43 ± 0.018 | 0.6011 ± 0.0014 | 0.223 ± 0.011 | 0.228 ± 0.021 | 0.328 ± 0.0081 |
| PFGPTFSPRPFR | 0.773 ± 0.022 | 0.727 ± 0.048 | 0.767 ± 0.011 | 0.684 ± 0.015 | 0.7793 ± 0.0072 | 0.692 ± 0.023 | 0.701 ± 0.013 | 0.747 ± 0.0083 |
| PFLSLPFLFPSS | 0.531 ± 0.14 | 0.715 ± 0.026 | 0.769 ± 0.012 | 0.684 ± 0.0075 | 0.7675 ± 0.0052 | 0.687 ± 0.027 | 0.696 ± 0.027 | 0.757 ± 0.016 |
| PFSLCFVFPFFF | 0.187 ± 0.0097 | 0.52 ± 0.021 | 0.5891 ± 0.0011 | 0.567 ± 0.035 | 0.6329 ± 0.0063 | 0.143 ± 0.0063 | 0.174 ± 0.0044 | 0.28 ± 0.0092 |

| Sequence | protein stability index [1] | protein stability index [2, 3] | protein stability index [2, 4] | protein stability index [2, 5] | protein stability index [2, 6] | protein stability index [2, 7] | protein stability index [2, 8] | protein stability index [2, 9] |
| --- | --- | --- | --- | --- | --- | --- | --- | --- |
| PGWALLQLVFLK | 0.456 ± 0.012 | 0.363 ± 0.004 | 0.298 ± 0.039 | 0.346 ± 0.032 | 0.4845 ± 0.0029 | 0.496 ± 0.035 | 0.353 ± 0.021 | 0.464 ± 0.011 |
| PHHSPPTGPPND | 0.687 ± 0.022 | 0.673 ± 0.011 | 0.737 ± 0.018 | 0.648 ± 0.008 | 0.7171 ± 0.0041 | 0.663 ± 0.014 | 0.658 ± 0.007 | 0.705 ± 0.0085 |
| PLHPSSTPATPF | 0.732 ± 0.034 | 0.69 ± 0.03 | 0.741 ± 0.0032 | 0.667 ± 0.023 | 0.745 ± 0.023 | 0.677 ± 0.026 | 0.6834 ± 0.0044 | 0.722 ± 0.02 |
| PLLPPLSTPPPA | 0.385 ± 0.062 | 0.69 ± 0.0086 | 0.732 ± 0.023 | 0.663 ± 0.015 | 0.739 ± 0.011 | 0.669 ± 0.022 | 0.677 ± 0.013 | 0.6983 ± 0.0039 |
| PLPSRAPVQFLL | 0.319 ± 0.021 | 0.624 ± 0.012 | 0.754 ± 0.017 | 0.643 ± 0.029 | 0.727 ± 0.0097 | 0.1719 ± 0.0011 | 0.199 ± 0.019 | 0.3725 ± 0.00074 |
| PLRLRCASLFAN | 0.498 ± 0.086 | 0.62 ± 0.021 | 0.692 ± 0.0095 | 0.618 ± 0.034 | 0.737 ± 0.04 | 0.304 ± 0.018 | 0.362 ± 0.019 | 0.5647 ± 0.002 |
| PLVLPPINLFLV | 0.189 ± 0.0031 | 0.575 ± 0.071 | 0.729 ± 0.025 | 0.63 ± 0.017 | 0.7373 ± 0.0008 | 0.0842 ± 0.029 | 0.114 ± 0.019 | 0.136 ± 0.021 |
| PPLPPPPPHPPP | 0.488 ± 0.016 | 0.458 ± 0.045 | 0.52 ± 0.019 | 0.477 ± 0.0095 | 0.521 ± 0.023 | 0.501 ± 0.017 | 0.493 ± 0.04 | 0.4959 ± 0.0011 |
| PPPLLVRPWFLV | 0.214 ± 0.05 | 0.618 ± 0.054 | 0.725 ± 0.013 | 0.612 ± 0.029 | 0.741 ± 0.024 | 0.147 ± 0.018 | 0.157 ± 0.019 | 0.269 ± 0.02 |
| PPPPHSAPLFLS | 0.37 ± 0.0087 | 0.604 ± 0.007 | 0.697 ± 0.011 | 0.651 ± 0.019 | 0.694 ± 0.011 | 0.227 ± 0.0096 | 0.261 ± 0.032 | 0.458 ± 0.011 |
| PPPPLFLIVLHL | 0.434 ± 0.033 | 0.5196 ± 0.0015 | 0.621 ± 0.031 | 0.465 ± 0.03 | 0.642 ± 0.012 | 0.4109 ± 0.0026 | 0.401 ± 0.026 | 0.593 ± 0.023 |
| PPPPPLAIPHPT | 0.7255 ± 0.0042 | 0.655 ± 0.037 | 0.709 ± 0.013 | 0.661 ± 0.04 | 0.684 ± 0.024 | 0.639 ± 0.011 | 0.674 ± 0.031 | 0.7141 ± 0.0041 |
| PPPPPPLPSPSS | 0.35 ± 0.0078 | 0.664 ± 0.038 | 0.742 ± 0.024 | 0.64 ± 0.021 | 0.754 ± 0.012 | 0.659 ± 0.015 | 0.68 ± 0.023 | 0.699 ± 0.019 |
| PPPPPSRPFSPP | 0.502 ± 0.015 | 0.698 ± 0.042 | 0.7412 ± 0.0017 | 0.687 ± 0.0079 | 0.71 ± 0.024 | 0.689 ± 0.0074 | 0.6544 ± 0.0037 | 0.709 ± 0.013 |
| PPPRSLSPPLLS | 0.409 ± 0.0037 | 0.642 ± 0.0076 | 0.7372 ± 0.0019 | 0.643 ± 0.025 | 0.704 ± 0.0013 | 0.6711 ± 0.0062 | 0.659 ± 0.014 | 0.681 ± 0.023 |
| PPRSRPLLRPLP | 0.746 ± 0.021 | 0.699 ± 0.0037 | 0.726 ± 0.012 | 0.666 ± 0.022 | 0.7139 ± 0.0036 | 0.684 ± 0.033 | 0.684 ± 0.022 | 0.708 ± 0.025 |
| PPSRVSIRLLIR | 0.4017 ± 0.0039 | 0.446 ± 0.025 | 0.473 ± 0.0095 | 0.362 ± 0.021 | 0.461 ± 0.0062 | 0.374 ± 0.0089 | 0.371 ± 0.0086 | 0.448 ± 0.013 |
| PRFLRWLFSLLI | 0.515 ± 0.032 | 0.739 ± 0.039 | 0.704 ± 0.012 | 0.705 ± 0.015 | 0.769 ± 0.044 | 0.597 ± 0.0095 | 0.592 ± 0.014 | 0.739 ± 0.041 |
| PRINTFVVVRVC | 0.159 ± 0.042 | 0.102 ± 0.02 | 0.183 ± 0.015 | 0.216 ± 0.038 | 0.336 ± 0.013 | 0.0626 ± 0.015 | 0.0722 ± 0.018 | 0.0609 ± 0.0015 |
